B1: GFP-tagged Cdc6 WT [human] / Myc-tagged Sas-6 [human] (parent)
chain 1: MPQTRSQAQATISFPKRKLSRALNKAKNSSDAKLEPTNVQTVTCSPRVKALPLSPRKRLGDDNLCNTPHLPPCSPPKQGKKENGPPHSHTLKGRRLVFDNQLTIKSPSKRELAKVHQNKILSSVRKSQEITTNSEQRCPLKKESACVRLFKQEGTCYQQAKLVLNTAVPDRLPAREREMDVIRNFLREHICGKKAGSLYLSGAPGTGKTACLSRILQDLKKELKGFKTIMLNCMSLRTAQAVFPAIAQEICQEEVSRPAGKDMMRKLEKHMTAEKGPMIVLVLDEMDQLDSKGQDVLYTLFEWPWLSNSHLVLIGIANTLDLTDRILPRLQAREKCKPQLLNFPPYTRNQIVTILQDRLNQVSRDQVLDNAAVQFCARKVSAVSGDVRKALDVCRRAIEIVESDVKSQTILKPLSECKSPSEPLIPKRVGLIHISQVISEVDGNRMTLSQEGAQDSFPLQQKILVCSLMLLIRQLKIKEVTLGKLYEAYSKVCRKQQVAAVDQSECLSLSGLLEARGILGLKRNKETRLTKVFFKIEEKEIEHALKDKALIGNILATGLP
chain 2: MSQVLFHQLVPLQVKCKDCEERRVSIRMSIELQSVSNPVHRKDLVIRLTDDTDPFFLYNLVISEEDFQSLKFQQGLLVDFLAFPQKFIDLLQQCTQEHAKEIPRFLLQLVSPAAILDNSPAFLNVVETNPFKHLTHLSLKLLPGNDVEIKKFLAGCLKCSKEEKLSLMQSLDDATKQLDFTRKTLAEKKQELDKLRNEWASHTAALTNKHSQELTNEKEKALQAQVQYQQQHEQQKKDLEILHQQNIHQLQNRLSELEAANKDLTERKYKGDSTIRELKAKLSGVEEELQRTKQEVLSLRRENSTLDVECHEKEKHVNQLQTKVAVLEQEIKDKDQLVLRTKEAFDTIQEQKVVLEENGEKNQVQLGKLEATIKSLSAELLKANEIIKKLQGDLKTLMGKLKLKNTVTIQQEKLLAEKEEKLQKEQKELQDVGQSLRIKEQEVCKLQEQLEATVKKLEESKQLLKNNEKLITWLNKELNENQLVRKQDVLGPSTTPPAHSSSNTIRSGISPNLNVVDGRLTYPTCGIGYPVSSAFAFQNTFPHSISAKNTSHPGSGTKVQFNLQFTKPNASLGDVQSGATISMPCSTDKENGENVGLESKYLKKREDSIPLRGLSQNLFSNSDHQRDGTLGALHTSSKPTALPSASSAYFPGQLPNS

Variants of: B1
Test: co-immunoprecipitation (anti-GFP IP, western blot quantified by ImageJ)
Conditions: with Myc-tagged Sas-6 [human]; HEK293 cells co-transfected; three independent experiments; means ± s.d.; read off a plot

Variant | ratio to parent
chain 1 S30D T527D | 0.42
chain 1 S30A T527A | 1.7
